Experimental data: paper doi:10.1101/2021.06.03.446896
pKd: −log10 of the molar value.

Target: Cy5-labelled 46w60 mononucleosome (histone octamer on DNA)
Test: MST

For “human CHD4 (from UniProt Q14839 1-1912) (enzyme)”, the pKd was 7.39, the fold change of Kd with 2 uM (CA)20 RNA against no RNA was < 2 fold and the fold reduction of affinity with 2 uM (GA)20 RNA against no RNA was 20 fold.
